Assay results: the DeepSol protein solubility set

Test: soluble on expression in E. coli; label from the status in PepcDB or PDB records

Soluble on expression in E. coli, soluble:
MGKKELKRGLVVDREAQMIGVYLFEDGKTYRGIPRGKVLKKTKIYAGDYVWGEVVDPNTFAIEEVEERKNLLIRPKVANVDRVIIVETLKMPEFNNYLLDNMLVVYEYFKVEPVIVFNKIDLLNEEEKKELERWISIYRDAGYDVLKVSAKTGEGIDELVDYLEGFICILAGPSGVGKSSILSRLTGEELRTQEVSEKTERGRHTTTGVRLIPFGKGSFVGDTPGFSKVEATMFVKPREVRNYFREFLRYQCKYPDCTHTNEPGCAVKEAVKNGEISCERYKSYLKIIKVYLEEIKELCRED, MGSDKIHHHHHHMVKVLILGQGYVASTFVAGLEKLRKGEIEPYGVPLARELPIGFEDIKIVGSYDVDRAKIGKKLSEVVKQYWNDVDSLTSDPEIRKGVHLGSVRNLPIEAEGLEDSMTLKEAVDTLVKEWTELDPDVIVNTCTTEAFVPFGNKEDLLKAIENNDKERLTATQVYAYAAALYANKRGGAAFVNVIPTFIANDPAFVELAKENNLVVFGDDGATGATPFTADVLSHLAQRNRYVKDVAQFNIGGNMDFLALTDDGKNKSKEFTKSSIVKDILGYDAPHYIKPTGYLEPLGDKKFIAIHIEYVSFNGATDELMINGRINDSPALGGLLVDLVRLGKIALDRKEFGTVYPVNAFYMKNPGPAEEKNIPRIIAYEKMRIWAGLKPKWL, MEYDVYVRVSKEDVHLLNYLLEVEEHMFNIRKYEDGVLKIITPFPEEAIKLLEGCKEMVDLEILEVKENPGEA, MRPKVGVLLKMKREALEELKKYADVEIILYPSGEELKGVIGRFDGIIVSPTTKITREVLENAERLKVISCHSAGYDNIDLEEATKRGIYVTKVSGLLSEAVAEFTVGLIINLMRKIHYADKFIRRGEWESHAKIWTGFKRIESLYGKKVGILGMGAIGKAIARRLIPFGVKLYYWSRHRKVNVEKELKARYMDIDELLEKSDIVILALPLTRDTYHIINEERVKKLEGKYLVNIGRGALVDEKAVTEAIKQGKLKGYATDVFEKEPVREHELFKYEWETVLTPHYAGLALEAQEDVGFRAVENLLKVLRGEVPEDLVNKEVLEVRPIENVKML

Soluble on expression in E. coli, not soluble:
GPGSMSTTSSPDEASCDVEKEGKGISPVTRTGKRFAECALMDLPDKYSSAFPYLRGARLFFFDVVSKLNRIGARNKRVVFVTDYTIGVASKRGHVSRCAKVEDISELICDAQTRALGVRMRSRPFAIVPKDFSRWNCFHEMPVDLLLHATSAAQYEALINVLSFVHHTSTHEALLCRSLKQYETWKASLVLAPDGSRVKKAVQYYAIPVTPSERSTDAATLSATRSQETSASLSAVRAPRQVALLSAGDSASRFTSGPDVSATAPKLRHWSSLGASSSFTPSGVGGHRTALGLSPFSLSPSPAPPLVEFSRDIEAVPTSATRRGVNPLLKADRKAPNAS, MKLAKRVAALTPSATLEITAKAQALKAEGHDVIGLGAGEPDFNTPEHIMDAAHKAMLEGHTKYTPTGGLQALKQEIVKKFTRDQGIAYDPSEIIVCNGAKHALYTLFQVLLDEGDEVIIPTPYWVSYPEQVKLAGGKPVYVEGLEGNEYKITAEQLREAITEKTKAVIINSPSNPTGMIYSKEELQQLGEVCLEHDILIVSDEIYEKLIYGGAEYTSIAQLSNALKEQTLIINGVSKSHSMTGWRIGYAAGNKQLIKAMTNLASHSTSNPTSIAQYGAIAAYAGSQEPVETMRQAFEERLNIIYDKLIQIPGFTCIKPQGAFYLFPNVKEAVALSGYETVDEWAKALLEEEKVALVPGTGFGAPNNVRLSYATSLEQVEKALERIHTFMKSKVQA, MGSDKIHHHHHHMLERRHIARDISYSHSAETRPGRIMIRLMENTTGRLRLIKRAKGYDMEVASGRSFWDVIVERYGLSLDVVGGSLDAIPRDKPVILIANHPYGILDGLMMGHILSRTRCDFRMLAHQVFRKAEDLNKVILPIDFAETKEAMKVNLQTRKDALDYLGQGGAIGIFPGGTVSTASKPFAHPMDPGWRGFTARMVAKSDAVVVPLYFDGHTSRLFQIASHLHYTLRMGLLIKEFKKRVDTPVKVVIGEPIGRDVLDPLAKDSKAMMDFLRKATYELSPTPLKSYDYGFEFEEKHRA, VDKIYVIEENDPFIEEQIKAYGIDCIGKDVIPPYGEMTPDVLRKAIFGKTNDTIEYKSELVTPRPPSFCAGCPHRGFFYELGKRKNLIVGGDIGCYTLGFAPPYNGIDYVVCMGSAFGTAHGAQKVLNMKDDNEKRLVGVLGDSTFFHTGINGLLDVVYNRGNSISVILDNRITGMTGHQENPGSGYTLQGAKTKEVDIEGLVKACGIEHVRVINPNNLKEVNEALDWALAIEDEPSVIIT
